Assay results: patent US20040265809A1 (published 2004)

Target: T1, rat RORβ ligand-binding domain (RORβ-LBD), residues 201-452, polyhistidine-tagged (rat, UniProt P45446 212-463)
T1 construct: Expressed in E. coli; The ligand pocket holds stearic acid (first crystal) or all-trans retinoic acid (second crystal); One monomer per asymmetric unit; also called rRORβ-LBD; RORbeta LBD; not shown: N-terminal polyhistidine tag and thrombin cleavage site from the pet15b vector (Novagen); the tagge
T1 sequence: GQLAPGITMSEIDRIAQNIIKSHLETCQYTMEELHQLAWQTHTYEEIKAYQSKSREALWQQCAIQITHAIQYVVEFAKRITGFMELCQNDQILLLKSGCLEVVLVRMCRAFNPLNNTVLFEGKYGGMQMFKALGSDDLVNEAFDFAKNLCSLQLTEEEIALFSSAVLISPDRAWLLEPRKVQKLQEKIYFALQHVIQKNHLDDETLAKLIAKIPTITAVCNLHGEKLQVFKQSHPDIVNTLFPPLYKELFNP
Test: co-crystallisation, hanging drop, stearate complex
Method: The RORβ-LBD stearate complex was crystallized at 22° C. by vapor diffusion in the hanging-drop mode. In the crystallisation trials, the protein was used without further purification and co-crystallized with a 3-molar excess of SRC-1⁶⁸⁶⁻⁷⁰⁰([…]) NR-interacting peptide co-activator sequence. Addition of the peptide was crucial to obtain crystals. In the initial trial to obtain crystallization conditions, a sparse matrix crystallization screen was done with a home screen. For each crystallization trial, a 4 μl drop was prepared by mixing 2 μl of purified protein (5.8 mg/ml) with an equal volume of reservoir solution. The reservoir contained 500 μl of the precipitating solution. A crystal measuring […] at 22° C. in PEG 6000 15% and 100 mM Tris HCl at pH=8.0 grew within about 2 weeks. This crystal was used in a first data collection run (as described below).

binding result: binds
Binder: RHKILHRLLQEGSPS (also called SRC1 peptide) [SRC-1 686-700 NR-interacting co-activator peptide]
